Laboratory results: paper PMC11589706, “Cryo-EM structure of PML RBCC dimer reveals CC-mediated octopus-like nuclear body assembly mechanism” (Cell Discovery, 2024)

How the values were obtained:
[1] = molecular target: the molecule itself; assay: two-hybrid; CheckMate mammalian two-hybrid (Promega) in HeLa Pml-/- cells; pG5-luc, pBIND-PML and pACT-PML at 1:1:1; dual-luciferase read-out 24 h after transfection; normalised to pACT vector:pBIND-PML = 1
[2] = molecular target: the molecule itself; assay: SEC; analytical size exclusion on Superdex 200 Increase 10/300 GL in 20 mM HEPES, pH 7.4, 100 mM NaCl, 4% glycerol; all truncations N-terminally fused to MBP

Protein	percent reduction of PML self-interaction (relative luciferase activity) compared to control [1]	binding result [2]
full-length PML L240R, mammalian two-hybrid fusions (natural protein, human, UniProt P29590-5 1-633, looked up, PML (TRIM19) isoform IV, full length, L240R; source: HeLa Pml-/- cells, transfected, mammalian two-hybrid fusion) MEPAPARSPRPQQDPARPQEPTMPPPETPSEGRQPSPSPSPTERAPASEEEFQFLRCQQCQAEAKCPKLLPCLHTLCSGCLEASGMQCPICQAPWPLGADTPALDNVFFESLQRRLSVYRQIVDAQAVCTRCKESADFWCFECEQLLCAKCFEAHQWFLKHEARPLAELRNQSVREFLDGTRKTNNIFCSNPNHRTPTLTSIYCRGCSKPLCCSCALLDSSHSELKCDISAEIQQRQEERDAMTQALQEQDSAFGAVHAQMHAAVGQLGRARAETEELIRERVRQVVAHVRAQERELLEAVDARYQRDYEEMASRLGRLDAVLQRIRTGSALVQRMKCYASDQEVLDMHGFLRQALCRLRQEEPQSLQAAVRTDGFDEFKVRLQDLSSCITQGKDAAVSKKASPEAASTPRDPIDVDLPEEAERVKAQVQALGLAEAQPMAVVQSVPGAHPVPVYAFSIKGPSYGEDVSNTTTAQKRKCSQTQCPRKVIKMESEEGKEARLARSSPEQPRPSTSKAVSPPHLDGPPSPRSPVIGSEVFLPNSNHVASGAGEAEERVVVISSSEDSDAENSSSRELDDSSSESSDLQLEGPSTLRVLDENLADPQAEDRPLVFFDLKIDNESGFSWGYPHPFLI	83.9%	
full-length PML I279R, mammalian two-hybrid fusions (natural protein, human, UniProt P29590-5 1-633, looked up, PML (TRIM19) isoform IV, full length, I279R; source: HeLa Pml-/- cells, transfected, mammalian two-hybrid fusion) MEPAPARSPRPQQDPARPQEPTMPPPETPSEGRQPSPSPSPTERAPASEEEFQFLRCQQCQAEAKCPKLLPCLHTLCSGCLEASGMQCPICQAPWPLGADTPALDNVFFESLQRRLSVYRQIVDAQAVCTRCKESADFWCFECEQLLCAKCFEAHQWFLKHEARPLAELRNQSVREFLDGTRKTNNIFCSNPNHRTPTLTSIYCRGCSKPLCCSCALLDSSHSELKCDISAEIQQRQEELDAMTQALQEQDSAFGAVHAQMHAAVGQLGRARAETEELRRERVRQVVAHVRAQERELLEAVDARYQRDYEEMASRLGRLDAVLQRIRTGSALVQRMKCYASDQEVLDMHGFLRQALCRLRQEEPQSLQAAVRTDGFDEFKVRLQDLSSCITQGKDAAVSKKASPEAASTPRDPIDVDLPEEAERVKAQVQALGLAEAQPMAVVQSVPGAHPVPVYAFSIKGPSYGEDVSNTTTAQKRKCSQTQCPRKVIKMESEEGKEARLARSSPEQPRPSTSKAVSPPHLDGPPSPRSPVIGSEVFLPNSNHVASGAGEAEERVVVISSSEDSDAENSSSRELDDSSSESSDLQLEGPSTLRVLDENLADPQAEDRPLVFFDLKIDNESGFSWGYPHPFLI	73.7%	
full-length PML V123R/F177R, mammalian two-hybrid fusions (natural protein, human, UniProt P29590-5 1-633, looked up, PML (TRIM19) isoform IV, full length, V123R and F177R; source: HeLa Pml-/- cells, transfected, mammalian two-hybrid fusion) MEPAPARSPRPQQDPARPQEPTMPPPETPSEGRQPSPSPSPTERAPASEEEFQFLRCQQCQAEAKCPKLLPCLHTLCSGCLEASGMQCPICQAPWPLGADTPALDNVFFESLQRRLSVYRQIRDAQAVCTRCKESADFWCFECEQLLCAKCFEAHQWFLKHEARPLAELRNQSVRERLDGTRKTNNIFCSNPNHRTPTLTSIYCRGCSKPLCCSCALLDSSHSELKCDISAEIQQRQEELDAMTQALQEQDSAFGAVHAQMHAAVGQLGRARAETEELIRERVRQVVAHVRAQERELLEAVDARYQRDYEEMASRLGRLDAVLQRIRTGSALVQRMKCYASDQEVLDMHGFLRQALCRLRQEEPQSLQAAVRTDGFDEFKVRLQDLSSCITQGKDAAVSKKASPEAASTPRDPIDVDLPEEAERVKAQVQALGLAEAQPMAVVQSVPGAHPVPVYAFSIKGPSYGEDVSNTTTAQKRKCSQTQCPRKVIKMESEEGKEARLARSSPEQPRPSTSKAVSPPHLDGPPSPRSPVIGSEVFLPNSNHVASGAGEAEERVVVISSSEDSDAENSSSRELDDSSSESSDLQLEGPSTLRVLDENLADPQAEDRPLVFFDLKIDNESGFSWGYPHPFLI	39.1%	
full-length PML L247R, mammalian two-hybrid fusions (natural protein, human, UniProt P29590-5 1-633, looked up, PML (TRIM19) isoform IV, full length, L247R; source: HeLa Pml-/- cells, transfected, mammalian two-hybrid fusion) MEPAPARSPRPQQDPARPQEPTMPPPETPSEGRQPSPSPSPTERAPASEEEFQFLRCQQCQAEAKCPKLLPCLHTLCSGCLEASGMQCPICQAPWPLGADTPALDNVFFESLQRRLSVYRQIVDAQAVCTRCKESADFWCFECEQLLCAKCFEAHQWFLKHEARPLAELRNQSVREFLDGTRKTNNIFCSNPNHRTPTLTSIYCRGCSKPLCCSCALLDSSHSELKCDISAEIQQRQEELDAMTQARQEQDSAFGAVHAQMHAAVGQLGRARAETEELIRERVRQVVAHVRAQERELLEAVDARYQRDYEEMASRLGRLDAVLQRIRTGSALVQRMKCYASDQEVLDMHGFLRQALCRLRQEEPQSLQAAVRTDGFDEFKVRLQDLSSCITQGKDAAVSKKASPEAASTPRDPIDVDLPEEAERVKAQVQALGLAEAQPMAVVQSVPGAHPVPVYAFSIKGPSYGEDVSNTTTAQKRKCSQTQCPRKVIKMESEEGKEARLARSSPEQPRPSTSKAVSPPHLDGPPSPRSPVIGSEVFLPNSNHVASGAGEAEERVVVISSSEDSDAENSSSRELDDSSSESSDLQLEGPSTLRVLDENLADPQAEDRPLVFFDLKIDNESGFSWGYPHPFLI	75.8%	
full-length PML V123R/L178R, mammalian two-hybrid fusions (natural protein, human, UniProt P29590-5 1-633, looked up, PML (TRIM19) isoform IV, full length, V123R and L178R; source: HeLa Pml-/- cells, transfected, mammalian two-hybrid fusion) MEPAPARSPRPQQDPARPQEPTMPPPETPSEGRQPSPSPSPTERAPASEEEFQFLRCQQCQAEAKCPKLLPCLHTLCSGCLEASGMQCPICQAPWPLGADTPALDNVFFESLQRRLSVYRQIRDAQAVCTRCKESADFWCFECEQLLCAKCFEAHQWFLKHEARPLAELRNQSVREFRDGTRKTNNIFCSNPNHRTPTLTSIYCRGCSKPLCCSCALLDSSHSELKCDISAEIQQRQEELDAMTQALQEQDSAFGAVHAQMHAAVGQLGRARAETEELIRERVRQVVAHVRAQERELLEAVDARYQRDYEEMASRLGRLDAVLQRIRTGSALVQRMKCYASDQEVLDMHGFLRQALCRLRQEEPQSLQAAVRTDGFDEFKVRLQDLSSCITQGKDAAVSKKASPEAASTPRDPIDVDLPEEAERVKAQVQALGLAEAQPMAVVQSVPGAHPVPVYAFSIKGPSYGEDVSNTTTAQKRKCSQTQCPRKVIKMESEEGKEARLARSSPEQPRPSTSKAVSPPHLDGPPSPRSPVIGSEVFLPNSNHVASGAGEAEERVVVISSSEDSDAENSSSRELDDSSSESSDLQLEGPSTLRVLDENLADPQAEDRPLVFFDLKIDNESGFSWGYPHPFLI	33.1%	
full-length PML V123R, mammalian two-hybrid fusions (natural protein, human, UniProt P29590-5 1-633, looked up, PML (TRIM19) isoform IV, full length, V123R; source: HeLa Pml-/- cells, transfected, mammalian two-hybrid fusion) MEPAPARSPRPQQDPARPQEPTMPPPETPSEGRQPSPSPSPTERAPASEEEFQFLRCQQCQAEAKCPKLLPCLHTLCSGCLEASGMQCPICQAPWPLGADTPALDNVFFESLQRRLSVYRQIRDAQAVCTRCKESADFWCFECEQLLCAKCFEAHQWFLKHEARPLAELRNQSVREFLDGTRKTNNIFCSNPNHRTPTLTSIYCRGCSKPLCCSCALLDSSHSELKCDISAEIQQRQEELDAMTQALQEQDSAFGAVHAQMHAAVGQLGRARAETEELIRERVRQVVAHVRAQERELLEAVDARYQRDYEEMASRLGRLDAVLQRIRTGSALVQRMKCYASDQEVLDMHGFLRQALCRLRQEEPQSLQAAVRTDGFDEFKVRLQDLSSCITQGKDAAVSKKASPEAASTPRDPIDVDLPEEAERVKAQVQALGLAEAQPMAVVQSVPGAHPVPVYAFSIKGPSYGEDVSNTTTAQKRKCSQTQCPRKVIKMESEEGKEARLARSSPEQPRPSTSKAVSPPHLDGPPSPRSPVIGSEVFLPNSNHVASGAGEAEERVVVISSSEDSDAENSSSRELDDSSSESSDLQLEGPSTLRVLDENLADPQAEDRPLVFFDLKIDNESGFSWGYPHPFLI	18.5%	
full-length PML F177R, mammalian two-hybrid fusions (natural protein, human, UniProt P29590-5 1-633, looked up, PML (TRIM19) isoform IV, full length, F177R; source: HeLa Pml-/- cells, transfected, mammalian two-hybrid fusion) MEPAPARSPRPQQDPARPQEPTMPPPETPSEGRQPSPSPSPTERAPASEEEFQFLRCQQCQAEAKCPKLLPCLHTLCSGCLEASGMQCPICQAPWPLGADTPALDNVFFESLQRRLSVYRQIVDAQAVCTRCKESADFWCFECEQLLCAKCFEAHQWFLKHEARPLAELRNQSVRERLDGTRKTNNIFCSNPNHRTPTLTSIYCRGCSKPLCCSCALLDSSHSELKCDISAEIQQRQEELDAMTQALQEQDSAFGAVHAQMHAAVGQLGRARAETEELIRERVRQVVAHVRAQERELLEAVDARYQRDYEEMASRLGRLDAVLQRIRTGSALVQRMKCYASDQEVLDMHGFLRQALCRLRQEEPQSLQAAVRTDGFDEFKVRLQDLSSCITQGKDAAVSKKASPEAASTPRDPIDVDLPEEAERVKAQVQALGLAEAQPMAVVQSVPGAHPVPVYAFSIKGPSYGEDVSNTTTAQKRKCSQTQCPRKVIKMESEEGKEARLARSSPEQPRPSTSKAVSPPHLDGPPSPRSPVIGSEVFLPNSNHVASGAGEAEERVVVISSSEDSDAENSSSRELDDSSSESSDLQLEGPSTLRVLDENLADPQAEDRPLVFFDLKIDNESGFSWGYPHPFLI	45.1%	
full-length PML L178R, mammalian two-hybrid fusions (natural protein, human, UniProt P29590-5 1-633, looked up, PML (TRIM19) isoform IV, full length, L178R; source: HeLa Pml-/- cells, transfected, mammalian two-hybrid fusion) MEPAPARSPRPQQDPARPQEPTMPPPETPSEGRQPSPSPSPTERAPASEEEFQFLRCQQCQAEAKCPKLLPCLHTLCSGCLEASGMQCPICQAPWPLGADTPALDNVFFESLQRRLSVYRQIVDAQAVCTRCKESADFWCFECEQLLCAKCFEAHQWFLKHEARPLAELRNQSVREFRDGTRKTNNIFCSNPNHRTPTLTSIYCRGCSKPLCCSCALLDSSHSELKCDISAEIQQRQEELDAMTQALQEQDSAFGAVHAQMHAAVGQLGRARAETEELIRERVRQVVAHVRAQERELLEAVDARYQRDYEEMASRLGRLDAVLQRIRTGSALVQRMKCYASDQEVLDMHGFLRQALCRLRQEEPQSLQAAVRTDGFDEFKVRLQDLSSCITQGKDAAVSKKASPEAASTPRDPIDVDLPEEAERVKAQVQALGLAEAQPMAVVQSVPGAHPVPVYAFSIKGPSYGEDVSNTTTAQKRKCSQTQCPRKVIKMESEEGKEARLARSSPEQPRPSTSKAVSPPHLDGPPSPRSPVIGSEVFLPNSNHVASGAGEAEERVVVISSSEDSDAENSSSRELDDSSSESSDLQLEGPSTLRVLDENLADPQAEDRPLVFFDLKIDNESGFSWGYPHPFLI	44.9%	
MBP-PML_(46–323) (domain or fragment, human, UniProt P29590 46-323, looked up, PML (TRIM19), human, residues 46-323; source: E. coli BL21(DE3), purified; not shown: MBP, N-terminal, kept) PASEEEFQFLRCQQCQAEAKCPKLLPCLHTLCSGCLEASGMQCPICQAPWPLGADTPALDNVFFESLQRRLSVYRQIVDAQAVCTRCKESADFWCFECEQLLCAKCFEAHQWFLKHEARPLAELRNQSVREFLDGTRKTNNIFCSNPNHRTPTLTSIYCRGCSKPLCCSCALLDSSHSELKCDISAEIQQRQEELDAMTQALQEQDSAFGAVHAQMHAAVGQLGRARAETEELIRERVRQVVAHVRAQERELLEAVDARYQRDYEEMASRLGRLDAVL		binds
MBP-PML_(46–287) (domain or fragment, human, UniProt P29590 46-287, looked up, PML (TRIM19), human, residues 46-287; source: E. coli BL21(DE3), purified; not shown: MBP, N-terminal, kept) PASEEEFQFLRCQQCQAEAKCPKLLPCLHTLCSGCLEASGMQCPICQAPWPLGADTPALDNVFFESLQRRLSVYRQIVDAQAVCTRCKESADFWCFECEQLLCAKCFEAHQWFLKHEARPLAELRNQSVREFLDGTRKTNNIFCSNPNHRTPTLTSIYCRGCSKPLCCSCALLDSSHSELKCDISAEIQQRQEELDAMTQALQEQDSAFGAVHAQMHAAVGQLGRARAETEELIRERVRQVV		binds
